For 19 sequences, protein production results are on record in a protein production outcome set (Wang et al. 2014).
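Also: failed if final PepcDB status was selected cloned or expressed and not failed if soluble or beyond.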

This data set in a line: label from the status in PepcDB records.
With “MGARTPPCGREIVRVLPSERLISGNGEGAPLPDSHSELPPVIRRTEFVAYALAGLLLIAVIGVLYFAKAFFLPVVMAVVAGTMLSPAASFLERRGVPRALGAVLIVTAVTTVVAFVVALIAVPAMEWSSRLPELGAQLKEKLHVFDRPLALWKELQTMVGGSEGLPSLPLPKAEWVQPTLEFLSPTFAEFLLFFATLILFIASWRDLRRALIMNFGDRDARLRTLRILNEIEVHLGNYLLTVTVINIGVGVATGIICAITGMPNPAGLGALAAALNFIPIIGPIAMFIVLIVVGLVAFPTLGGGLMAGLAFGGITFLEGHFVTPTIIGRRLSLNALAVFIALAFWTWLWGPMGAFLSSPLLIVGLILKEHLLPENSPQLPQA”, the protein production result is on record as “failed”. As for “MRYVLALFFYRVFLLLLTPIVLLVLLIRSFNHPEYRQRLFERLGFFPKPYKQGGIVVHAASVGEVIALKSFIEKLLVNYPDLPITITSFTPTGSAQITKLFGRRVQHGYLPLDIFPCTTLFLHRLKPKMIIFMETELWPNLIAQCDQHQIKLLLINGRLSKKSLTSYQKLSALMAPCLNRFDMILTQSQENLTHFLQLGAHQSRCVNSGNLKFDISVNEQVINKKAELAKLLFADDSQAKRTVWLVASTHEGDEAITLTAFKELLSQYPSLLLVLVPRHPERFEQVANLCLTKQLSLAKRSENTIINNEQVWLLDSLGELMAAFALSDIVTMGGSFSEVGGHNPLEPALFNKPVIVGHNMSNFNEIMQQLRQENAIIELTNNTPTNESSAQLVNEVSALLQQPTRQKTLGENALKVVLKNQGASEKTLAQVVNLLPTRVNITSTTPLGDNS”, the entry is “failed”; as for “MKGSRKGESRAKESKPREPGTRRCAKCGRLDFILKKKMGIKSGFTFWNLVFLLTLSCVKGFIYTCGGTLKGLNGTIESPGFPYGYPNGANCTWVIIAEERNRIQIVFQSFALEEEYDYLSLYDGHPHPTNFRTRLTGFHLPPPVTSTKSVFSLRLTSDFAVSAHGFKVYYEELQSSSCGNPGVPPKGVLYGTRFDVGDKIRYSCVTGYILDGHPQLTCIANSVNTASWDFPVPICRAEDACGGTMRGSSGIISSPGFPNEYHNNADCTWTIVAEPGDTISLIFTDFQMEEKYDYLEIEGSEPPTIWLSGMNIPPPIISNKNWLRLHFVTDSNHRYRGFSAPYQVKKAIDFKSRGFKLFPGKDNSNKFSLLNEGGIKTASNLCPDPGEPENGKRFGSDFR”, “failed”. As for “MSINPYVTIFLLLAATSSQALSISLADPCTVSDFPALCRSTIKGQTNVNAATDVAIKELMKRTRQAKKIAEKELKRDGGVATCLSNFNSAFDNLEKALTNIKENDGFSLNINLSAALTDYDTCSDSMKETKEVNVIYKSAGVLYRMADNCLALSTLVKH”, the entry is “failed”; as for “MQASASNSSSYTVNASVLHVRAGSSTSHDIISRVYNGQSLNVIGEENGWYKININGKTGFVSGEFVSKNGTSNSNVSTTGGKNKVTADVLRVRTAPNTSSSVSGRVYEGQTLNVIGQENGWVKINHNGQVGYVSGEFVSGVSSNAGSSNSNTNNNNQESVKPASGNYTVNVSSLRVRTGPSTSHTTVGSVTKGQVVQVVGEVQDWFKINYAGQTAYVSKDYVTKGGSSDNVTQGNNQNNNQNNNVTVQTGGTYVVNATSLRVRTGPATYHSVIGGVLNGTTLNVIGSEGSWFKVNYQGKTGYVSSEFMKFVKGGTTTPEQPKQPEQPNQGAIGDYYINASALNVRSGEGTNYRIIGALPQGQKVQVISENSGWSKINYNGQTGYIGTRYLSKTPVGGAVDNNKPNNNQNNNQNNNNNTGNNSGNSSSILAYAKGMQGVPYVWGGTSANGVDCSGYIYHVFKKFGHNISRQSVAGYWGSLPQTSNPQPGDLIYFQNTYKSGPSHMGIYLGGGSFIQAGDKGVAIASLSNSYWKSHFLGYTKAPLEHHHHHH”, “not failed”; as for “MSSRPSRGAARLAAILDALPDALVLVNANGTVVNANTIALEAFETPGTALVGRGLLDLLPEFDSRLIPGSMRRPDSMDPRGRTKPTRMVARRTDGSEFPVEVTSANLENGQQAYDGYGYTGD”, “failed”.

Consider “MISLRTFLITFLVNIALLGIFWGNRMNFVDVVIFSFFSALFVSLATHILVTSRLRKLREAVARKSRFEDFLNDEITKLAEEVNSVVENSLIQEKETEKLKDIVTGFVHDVKSLVWNEVEDENLQKIIEEFYEFAKLEAGLERLRKEPVNLVELVNDVVEKFPGKVIFKYDDVVEVEADPMKLFRAFYNVIENAVKYSSGPVEVHVKKDRIIVKGPGPEIPYEVRANLFEKKKKSKGTGLGLYLAREFFEMHGFRIAYRREGNHNVFEIYTGYTGMSSVKSERDSR”, for which the protein production result is “not failed”. For “SDLPDSASRVFCGRILSMVNTDDVNAIILAQKNMLDRFEKTNEMLLNFNNLSSARLQQMSERFLHHTRTLVEMKRDLDSIFRRIRTLKGKLARQHPEAFSHIPEASFLEEEDEDPIPPSTTTTIATSEQSTGSCDTSPDTVSPSLSPGFEDLSHVQAGSPAINGRSQTDDEEMTGE”, the protein production result is “failed”.

Take “MDIKVSGRKTTVTDALRAHVDEKIGEALKVFDIEPMTVDVVLRYEKNPSNPNPAIVEVTARARGSVIRVAEHGADMYAAIDLSADKVTRQLRKFKTKVVDNRQGGASAADVAPVERVEDLADLLLPEEDDDLLVREKVIDVTPMTEEQALVQTDLLGHDFYVFENATTGLINVVYHRKNGGYGIIKPRIETLDE”: the protein production result was “failed”. Regarding “PFIMDAPRDLNISEGRMAELKCRTPPMSSVKWLLPNGTVLSHASRHPRISVLNDGTLNFSHVLLSDTGVYTCMVTNVAGNSNASAYLNVS”, the protein production entry is listed as “not failed”. In the case of “MLQNRLNKARSHAEKHDVDAIVFFNMSNVRYLSGFTGSDGAVVLGRDASWFLTDSRYTTQASRQVVGLPTVEYRIKLDGITELVREQGFRRIGFESEHTAFAVYESLRQKLPKTELVPIGEELAQLRLIKDPSECELLSRVARLASEALLSILPLVKPGAVERELALELEFAMRRAGAENASFDFIVASGERGSLPHGRASDKALAAGELVTIDFGARYEGYCSDETVTVAVGVPDERQCQIYGIVKEAHDRAIAAVRPGAELREIDRIARGYIEEQGYGAFFGHGLGHGVGLDVHEKPVVSPRGEGVAAVGMVFTIEPGIYIPGWGGVRIEDTVIVTEDGCRPITMIPKELMIL”, the protein production entry is reported as “failed”.

On to “MASEMKFAWLLAPDTYWDEKKTFITAALESGIDHIVDTADSGRIKKLGNLTLISPDEDADIVLVGRDGEGDGTLELPETLEYSRDIEMASELSESGRQVAAYVEIRSKAHEELARRLGRVVDYLILVGEDWKIIPLENIIADLQEEDVKLIAAVADVDEARVALETLEHGTDGVLIEPADISQIKDIAALLENIESETYELKPATITRIEPIGSGDRVCVDTCSIMGIGEGMLVGSYSQGLFLVHSESLESEYVASRPFRVNAGPVQAYVMVPGGRTRYLSELETGDEVIIVDRDGRSRSAIVGRVKIEKRPLMLVEAEYEGMKVRTLLQNAETIRLVNDKGEPVSVSELGEGDRVLVYFDESARHFGMAIKETIIEKLEHHHHHH”, for which the protein production entry was “not failed”. As for “MKRFVLFLLFMCVCVQAYAEQDYFFRDFKSRDLPQKLHLDKKLSQTIQPCMQLNASKHYTSTGVREPDKCTKSFKKSALMSYDLALGYLVSKNKQYGLKAIEILNAWAKELQSVDTYQSEDNINFYMPYMNMAYWFVKKAFPSPEYEDFIKRMRQYSQSALNTNHGAWGILFDVSSALALDDNALLHNSANRWQEWVFKAIDENGVIASAITRSDTSDYHGGPTKGIKGIAYTNFALLALTISGELLFENGYDLWGSGAGKRLSVAYNKVATWILNPETFPYFQPNLIGVHNNAYFIILAKHYSSPSANELLKQGDLHEDGFRLKLRSP”, the entry is “failed”; as for “MPIMGSSVYITVELAIAVLAILGNVLVCWAVWLNSNLQNVTNYFVVSLAAADIAVGVLAIPFAITISTGFCAACHGCLFIACFVLVLTQSSIFSLLAIAIDRYIAIRIPLRYNGLVTGTRAKGIIAICWVLSFAIGLTPMLGWNNCGQPKEGKNHSQGCGEGQVACLFEDVVPMNYMVYFNFFACVLVPLLLMLGVYLRIFLAARRQLKQMESQPLPGERARSTLQKEVHAAKSLAIIVGLFALCWLPLHIINCFTFFCPDCSHAPLWLMYLAIVLSHTNSVVNPFIYAYRIREFRQTFRKIIRSHVLRQQEPFKAAGTSARVLAAHGSDGEQVSLRLNGHPPGVWANGSAPHPERRPNGYALGLVSGGSAQESQGNTGLPDVELLSHELKGVCPEPPGLDDPLAQDGAGVS”, “not failed”. With “MSIRLKTALLSGILLAILVSGLGGVLWTVVRPGFQDIERARAADHMTALLAAISADIDSIGTFILSYSSWDETYAFVRTGDPTYVANNLAVEGAKNAQSHFALVLTPKGRTVFSRLWNDDFTATLPPPDAAGGGLPANHPLMAALSHPEGVRGLLQTPRGPLAVAARPILPSNEHGPPRGVLVFGRWLTHALSDHPPLPHLSPLRLWLAPAPGDAPENVRRLLAADGPDLEIDGIGEPTSLVTAGIRLVDLEGAPVAALTTTLAKTVEPQGESIIRLALVIAALGSLGVVAVGLVSNHLMIVAPLRRLESHITTLSRTGDLDTRLVLDRKDEIGLLARAFATMQGRIRHLAHYDPLTGLPNRTLFTMLGEGALARRRADRNGGGRRVGVAILDLDRLNTLTIGLGQGGSERALVAVGRRLAALAGPADVVARGGDGRFLVLLGDLAPAQAGSIVEREAAERLASAFAKPFTPDDLVGAPLSLTASIGLALFPQDGETLETLVTHAEVAVHQAKLLGRNNFQFFDDTLNRQAREILALESALYEALADNTLSLCFQPRIDAVRGHAIELKALARWDHPSRDLIVLEDVLPLIKQDGLLAEIDRWMSNAACRQIRQWRDQGVSFPPIAIALSARPLTAGDPGLAPIAEAIAANGVDPGDLAVEIAQSAIKGQFPETKAPETQAPEDRPAEELPWPDGLAGLGLGLVIDVADAGVVSPALLRRFPLTRLTIGAALVAKLPDCRESRALVRALIALADELDLECLAEGVERGDQADWLLAAGCRLQQGLFHARPQDQTVILRWLGQTPPRGLSSPGPRDRKQDGV” the entry was “failed”; with “STPSSKAINEVSTEDSNVTVTAVVLTSGRRSIQYNGEQHVIREGELADETGKISYTAWDGFSGDLQPGQTVQLGNAGVREWDGQPELNLGDSTDP”, “failed”; with “MKSGERSAVADRAQQIMSAARELLDAEGPDALSMRRIAERVGIRAPSLYKHFADKAALVAGLQAQGLTLLAEVQEAAEAEIGADPPLLVLGYAYRRHALASPHLYRITHGWPLARTALPEGLEDRAALPLARAVHGDINIARSFWAFAHGMVVLELDGRFPPGADLDVAWRTGCEAFTQAIRNRPHGSTA”, “not failed”. Take “MFIMQPEDTMTLIHDIILASWDILLEAAPYVLFGFFVAGLLKAYVPASFVARHLGRGHVGPVFKAALFGIPLPLCSCGVIPAAAGLRQQGASKGATTSFLIATPETGVDSMAVTWALLDPVMTVARPFAALLTSVAAGLMVDLFPERKRGESEISPPVMSPSRDAALHDGPTTLPAPVIAPVLHGAAGIAAAGSVSLGPIREHAACTCSGHASVAASACCGTSHSVSAPSGASCGCGSAAHAHSGTGCCGHDTPIGQVSGGFSGVVERFRGGMRFAFGELVADIGGWLLLGVVLAAVITILIPDDLFSGTFASGIGGILLMMVVGIPLYVCATASTPIAAAFALKGISPGAALVFLLAGPATNVATITVVARMLGRKAAVIYVAVIGVMSVALGLAVNMLYGWLGMGVTGWVQGSADAEPGMLSAVAAVVLLLLVLYQWLPALVARLRGEAHPAGCGCGH”: the protein production result was “failed”. With “MLEGIYLALDKMFGPMLRNTHPMWVVTVSGVILGAFFVLLNYFLVDQEKMKRLQKMAKELQEEFKKARESGDEKKLRKLQQKQLELLRLQNELMKDAFLKPMLITWPIIIIFWGWLKRWYFETAIVKYPFNFFLFDIFHKMYHSALKPDELGYFGWYFLTSYVVGTILRKVLDMA” the entry was “failed”.
